Data from the supplement of paper PMC10724198.
± gives the standard deviation of the averaged measurements.

What was measured:
Saccharomyces cerevisiae [1] = assay: protein stability index of tFT-peptide fusion (C-terminal peptide) (PSI (0-1 scale)); higher = more stable (slower turnover); conditions: genetic background: wild type; temperature: 30 C
Saccharomyces cerevisiae [2] = assay: as above
Description: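 MPS profiling in S. cerevisiae of the tFT-X12 degron library: putative degron peptides plus stable controls, 12 aa, fused to the C-terminus of a sfGFP-mCherry timer. Cells are FACS-sorted into 8 mCherry/sfGFP bins and deep-sequenced. PSI runs from 0 (unstable) to 1 (stable). Backgrounds are wild type, das1Δ and doa10Δ at 30 °C, and wild type, das1Δ, cdc34-1 and cdc53-1 at 37 °C; 2-3 technical replicates each.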

[3] = genetic background: cdc34-1, temperature: 37 C
[4] = genetic background: cdc53-1, temperature: 37 C
[5] = genetic background: das1 deletion, temperature: 30 C
[6] = genetic background: das1 deletion, temperature: 37 C
[7] = genetic background: doa10 deletion, temperature: 30 C
[8] = genetic background: wild type, temperature: 30 C
[9] = genetic background: wild type, temperature: 37 C
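Also: PSI is a weighted mean of sequencing reads over stability bins, variants kept only with over 10 reads, mCherry proximal and sfGFP distal, peptide attached via GGGS linker.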

Sequence	protein stability index (Saccharomyces cerevisiae [1])	protein stability index (Saccharomyces cerevisiae [2]; [3])	protein stability index (Saccharomyces cerevisiae [2]; [4])	protein stability index (Saccharomyces cerevisiae [2]; [5])	protein stability index (Saccharomyces cerevisiae [2]; [6])	protein stability index (Saccharomyces cerevisiae [2]; [7])	protein stability index (Saccharomyces cerevisiae [2]; [8])	protein stability index (Saccharomyces cerevisiae [2]; [9])
GHYQGVCHRRIC	0.34 ± 0.015	0.657 ± 0.026	0.725 ± 0.019	0.64 ± 0.028	0.7667 ± 0.0054	0.18 ± 0.016	0.176 ± 0.024	0.368 ± 0.033
LPSPLLFLPALF	0.466 ± 0.014	0.708 ± 0.017	0.7877 ± 0.0075	0.667 ± 0.025	0.778 ± 0.055	0.405 ± 0.011	0.436 ± 0.011	0.614 ± 0.017
RWRDGVAWVVVC	0.143 ± 0.025	0.254 ± 0.011	0.314 ± 0.024	0.289 ± 0.032	0.452 ± 0.0084	0.0897 ± 0.019	0.098 ± 0.0042	0.0954 ± 0.0098
ILFIVSSCGCVG	0.471 ± 0.0064	0.543 ± 0.031	0.557 ± 0.039	0.445 ± 0.037	0.5904 ± 0.0013	0.443 ± 0.024	0.446 ± 0.015	0.5724 ± 0.0043
WGFSVRFVLSVF	0.12 ± 0.017	0.0576 ± 0.004	0.145 ± 0.03	0.124 ± 0.029	0.2407 ± 0.0016	0.05 ± 0.014	0.0463 ± 0.02	0.115 ± 0.024
VVVRARVFFHIF	0.0561 ± 0.048	0.285 ± 0.012	0.444 ± 0.015	0.361 ± 0.022	0.538 ± 0.006	0.0651 ± 0.0018	0.0583 ± 0.025	0.07 ± 0.014
QVGRPRVGFSRR	0.764 ± 0.014	0.704 ± 0.035	0.7483 ± 1.4e-05	0.652 ± 0.0075	0.75 ± 0.016	0.657 ± 0.016	0.66 ± 0.02	0.7302 ± 0.0063
CFSVFSVLCFFV	0.437 ± 0.029	0.575 ± 0.02	0.6301 ± 0.0018	0.532 ± 0.03	0.627 ± 0.015	0.415 ± 0.035	0.414 ± 0.019	0.513 ± 0.0066
GVRCRLVIRVLG	0.316 ± 0.028	0.47 ± 0.035	0.508 ± 0.0085	0.286 ± 0.016	0.516 ± 0.0056	0.16864 ± 0.00011	0.22 ± 0.0075	0.407 ± 0.0064
THRAVGIGLRCC	0.358 ± 0.025	0.558 ± 0.042	0.637 ± 0.02	0.496 ± 0.029	0.645 ± 0.0067	0.165 ± 0.01	0.186 ± 0.022	0.4005 ± 0.0016
AIPRWLALLVAH	0.241 ± 0.0097	0.32 ± 0.012	0.381 ± 0.0079	0.29 ± 0.032	0.4508 ± 0.0036	0.13 ± 0.018	0.159 ± 0.022	0.238 ± 0.0066
LGATYSVQLYVS	0.131 ± 0.0029	0.336 ± 0.044	0.577 ± 0.022	0.539 ± 0.038	0.621 ± 0.013	0.0746 ± 0.012	0.0832 ± 0.015	0.0856 ± 0.005
RLVIFITRYLIS	0.2581 ± 0.00054	0.337 ± 0.043	0.488 ± 0.066	0.349 ± 0.044	0.562 ± 0.015	0.116 ± 0.03	0.162 ± 0.016	0.275 ± 0.0028
RGWNGFWVVVVW	0.307 ± 0.0078	0.216 ± 0.015	0.305 ± 0.03	0.239 ± 0.039	0.4155 ± 0.0011	0.213 ± 0.0046	0.227 ± 0.035	0.368 ± 0.032
YVFSPWSCWASV	0.423 ± 0.015	0.366 ± 0.019	0.396 ± 0.0044	0.416 ± 0.0081	0.361 ± 0.0059	0.4213 ± 0.00065	0.4048 ± 0.0027	0.351 ± 0.015
RTSRPVRLFRIH	0.402 ± 0.06	0.753 ± 0.031	0.83846 ± 4.9e-05	0.656 ± 0.022	0.78 ± 0.009	0.26 ± 0.051	0.279 ± 0.046	0.448 ± 0.0097
MLVLFCLCYILG	0.341 ± 0.0068	0.2462 ± 0.0023	0.34 ± 0.013	0.231 ± 0.025	0.377 ± 0.0043	0.217 ± 0.013	0.235 ± 0.037	0.338 ± 0.03

Sequence	protein stability index (Saccharomyces cerevisiae [1])	protein stability index (Saccharomyces cerevisiae [2]; [3])	protein stability index (Saccharomyces cerevisiae [2]; [4])	protein stability index (Saccharomyces cerevisiae [2]; [5])	protein stability index (Saccharomyces cerevisiae [2]; [6])	protein stability index (Saccharomyces cerevisiae [2]; [7])	protein stability index (Saccharomyces cerevisiae [2]; [8])	protein stability index (Saccharomyces cerevisiae [2]; [9])
LPPHLPFPLSAA	0.383 ± 0.011	0.657 ± 0.0098	0.7225 ± 0.0025	0.638 ± 0.0075	0.724 ± 0.019	0.43 ± 0.0083	0.462 ± 0.019	0.621 ± 0.0089
PRFCVYARFHNT	0.387 ± 0.022	0.713 ± 0.016	0.748 ± 0.01	0.649 ± 0.036	0.722 ± 0.054	0.298 ± 0.023	0.375 ± 0.033	0.567 ± 0.02
PSPPPPRPASPS	0.439 ± 0.023	0.7 ± 0.052	0.7492 ± 0.0073	0.651 ± 0.0084	0.72829 ± 0.00037	0.667 ± 0.048	0.652 ± 0.015	0.719 ± 0.0084
FFFFSVHLSFLD	0.31 ± 0.013	0.122 ± 0.0052	0.295 ± 0.018	0.178 ± 0.04	0.365 ± 0.029	0.179 ± 0.0073	0.176 ± 0.028	0.305 ± 0.024
VVLWWWVVARDL	0.44 ± 0.028	0.414 ± 0.019	0.495 ± 0.038	0.402 ± 0.03	0.551 ± 0.031	0.332 ± 0.026	0.339 ± 0.03	0.514 ± 0.01
WCCCVSGFVWWM	0.526 ± 0.11	0.563 ± 0.012	0.6296 ± 0.0022	0.491 ± 0.03	0.633 ± 0.021	0.458 ± 0.011	0.465 ± 0.015	0.602 ± 0.017
HCLLQDVPPTLH	0.734 ± 0.031	0.641 ± 0.026	0.6925 ± 0.0062	0.711 ± 0.051	0.678 ± 0.014	0.703 ± 0.021	0.702 ± 0.015	0.66 ± 0.02
GVWSLDWFLLVW	0.24 ± 0.016	0.0785 ± 0.021	0.187 ± 0.026	0.158 ± 0.016	0.223 ± 0.0023	0.134 ± 0.016	0.15 ± 0.023	0.217 ± 0.017
VYLVLRCGSVLV	0.443 ± 0.054	0.565 ± 0.015	0.56 ± 0.032	0.406 ± 0.021	0.597 ± 0.011	0.379 ± 0.018	0.399 ± 0.016	0.586 ± 0.02
SLVIVLPALIFL	0.467 ± 0.035	0.463 ± 0.026	0.545 ± 0.013	0.393 ± 0.013	0.569 ± 0.014	0.408 ± 0.0052	0.401 ± 0.024	0.522 ± 0.014
YSVFCPLFFIIY	0.379 ± 0.014	0.3507 ± 0.0014	0.323 ± 0.006	0.298 ± 0.04	0.458 ± 0.013	0.351 ± 0.014	0.283 ± 0.02	0.433 ± 0.0062
RARLRFASLRAF	0.176 ± 0.01	0.546 ± 0.015	0.629 ± 0.079	0.64 ± 0.13	0.644 ± 0.029	0.144 ± 0.012	0.122 ± 0.008	0.217 ± 0.018
FSSWPFFSFYLS	0.518 ± 0.036	0.681 ± 0.032	0.689 ± 0.021	0.617 ± 0.036	0.743 ± 0.026	0.415 ± 0.034	0.392 ± 0.024	0.6048 ± 0.0018
VRMMYSVQVWCG	0.0363 ± 0.036	0.0466 ± 0.011	0.138 ± 0.03	0.0633 ± 0.029	0.165 ± 0.012	0.02927 ± 0.00015	0.0222 ± 0.0046	0.0439 ± 0.0023
YVLWFVCGVGFV	0.392 ± 0.041	0.352 ± 0.015	0.462 ± 0.031	0.29 ± 0.045	0.4768 ± 0.0011	0.262 ± 0.024	0.298 ± 0.02	0.453 ± 0.028
GRAVGLANFTIK	0.129 ± 0.012	0.659 ± 0.02	0.756 ± 0.033	0.641 ± 0.026	0.735 ± 0.015	0.65 ± 0.044	0.68 ± 0.042	0.7006 ± 0.0042
